Experimental data from paper PMC8484483 (Scientific Reports, 2021).
Values belong to the binder of their own block, whether it stands above or below them.

Columns and labels:
Settings in all cases: both partners purified
[1] = target: T1, recombinant CD30 extracellular domain fused with rabbit IgG1 Fc (Homo sapiens, UniProt P28908); assay: SPR; Biacore T200; antibodies (1 ug/mL, ca. 400 RU) captured on a CM5 chip with anti-human IgG Fc; TNFR2-rFc and CD30-rFc (10 nM) run one after the other as 1st and 2nd analytes, in both orders; PBS, 0.05% Tween 20, pH 7.4, 25 °C
T1 construct: CD30, human, extracellular domain; also called CD30-rFc; source: Expi293F, transfected; purified on Protein A (as the chimeric antibodies)
T1 sequence (P28908 19-385): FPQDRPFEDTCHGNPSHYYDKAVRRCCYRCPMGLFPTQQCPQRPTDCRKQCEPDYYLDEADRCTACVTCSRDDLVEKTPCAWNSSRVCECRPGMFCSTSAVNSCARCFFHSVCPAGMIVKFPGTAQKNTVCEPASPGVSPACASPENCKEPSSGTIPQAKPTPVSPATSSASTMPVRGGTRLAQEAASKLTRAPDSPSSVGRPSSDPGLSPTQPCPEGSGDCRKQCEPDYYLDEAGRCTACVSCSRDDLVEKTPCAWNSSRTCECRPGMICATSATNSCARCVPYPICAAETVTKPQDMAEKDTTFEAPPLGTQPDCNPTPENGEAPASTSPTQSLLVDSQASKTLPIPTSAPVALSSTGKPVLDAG

[2] = target: T2, recombinant TNFR2 extracellular domain fused with rabbit IgG1 Fc (Homo sapiens, UniProt P20333); assay: as above
T2 construct: TNFR2, human, extracellular domain; also called TNFR2-rFc; source: Expi293F, transfected; purified on Protein A (as the chimeric antibodies)

[3] = target: T1, recombinant CD30 extracellular domain …; assay: flow cytometry on cells; crosslinking: antigen-expressing cells incubated with mAb or BsAb (10 ug/mL), washed twice, then CD30-rFc or TNFR2-rFc (50 ng/mL) 1 h on ice; rFc detected with R-PE anti-rabbit IgG; the antibody is held on the cells by its other arm

binding result [1]: no binding (tested: 10 nM)
binding result [2]: binds
B1: anti-TNFR2 TR109, human chimeric monoclonal antibody (antibody, V domains shown)
VH: QVQLKESGPGLVAPSQSLSITCTVSGFSLTVYGVNWVRQPPGKGLEWLGMIWGDGSTAYNSALKSRLTITKDNSKTQVFLKMNSLQTDDTARYYCARDGRRYALDYWGQGTSVTVSS
VL: DIVLTQSPTSLAVSLGQRATISCRASESVDSYGDSFLHWYQQKPGQPPILLIYRASNLDSGIPARFSGSGSRTDFTLTINPVEADDVATYYCQQSNEDPYTFGGGTKLEIK

binding result [3]: binds
binding result [2]: no binding (tested: 10 nM)
B2: anti-CD30 T104, human chimeric monoclonal antibody (antibody, V domains shown)
VH: QIQLVQSGPELKKPGETVKISCKASGYTFTDYSMHWVKQAPGKGLKWMGWINTETGEPTYADDFKGRFAFSLETSASTAYLQINNLKNEDTATYFCTEGYVFDFWGQGTTLTVSS
VL: DILLTQSPAILSVSPGERVSFSCRASRSIGTSIHWYQQRTNGSPRLLINYASESISGIPSRFSGSGSGTDFTLSINSVESEDIADYYCQQSNSWPLTFGAGTKLELK

binding result [1]: binds
binding result [2]: no binding (tested: 10 nM)
B3: C-cleaved side product of the IMPTS reaction, monovalent Fab^CD30-Fc (SEC peak P2) (antibody, V domains shown)
VH: B2 VH
VL: B2 VL
